Measured values from article PMC9700832 (2022).

B1: B. thuringiensis serovar israelensis LexA (natural protein)
chain: MEKLTKRQQDILDFIKLKVQEKGYPPSVREIGQAVGLASSSTVHGHLSRLEEKGYIRRDPTKPRAIEILGEDRMDTETQSVIQVPIVGKVTAGLPITAVESVEEHFPLPASIVAGADQVFMLRISGDSMIEAGIFDGDLVVVRQQQSAYNGEIVVALTEDNEATVKRFYKEKDHFRLQPENSSLEPIILKQVSVIGKVIGVYRDLH

Legend:
Experiment in all cases: SPR
[1] = molecular target: B1
[2] = molecular target: tectiviral gp7 homolog from the phage found in B. thuringiensis serovar aizawai (tectiviral phage found in B. …)
[3] = molecular target: tectiviral gp7 homolog from B. cereus AND1284 phage Sato (phage Sato (B. cereus AND1284))
[4] = molecular target: tectiviral gp7 homolog from the phage found in B. cereus VD184 (tectiviral phage found in B. cereus …)
[5] = molecular target: tectiviral gp7 homolog from B. anthracis phage AP50 (phage AP50 (B. anthracis))

Row | Binder | Kd [1] [µM] | Kd [2] [µM] | Kd [3] [µM] | Kd [4] [µM] | Kd [5] [µM]
1 | MRDKLLDFIIELSQSSKQVVSKSYVIDRLMQVTKEDYKELEKNVEGKKDD (natural protein) [gp7 protein of GIL01 phage] | 0.169 | – | – | – | –
2 | MRDKLLDFIIELSQSSKQVVAKDYVIDRLMQVTKEDYKEMEKKTEGKKN (natural protein) [tectiviral gp7 homolog from B. mycoides VDm034 phage Lima] | 0.185 | – | – | – | –
3 | B1 | – | 0.15 | 0.19 | 0.148 | 0.167
